A word on the Kd: it is the constant that tells how readily two partners part at equilibrium.

From patent US20240190962A1 (IMMUNOWAKE, published 2024) come the findings set out here.

Changes are numbered by the printed parent chain. Names may count otherwise.

Test [1] concerns the target T1, human PD-1 (human, UniProt Q15116 25-167, limits assumed).
T1 construct: also called hPD-1
The experiment in a line: PD-L1-Fc format, calibrated on PD-L1(wt)-Fc.

Test [2] deals with T2, mouse PD-1 (mouse, UniProt Q02242 25-167, limits assumed).
T2 construct: also called mPD-1
T2 sequence (looked up): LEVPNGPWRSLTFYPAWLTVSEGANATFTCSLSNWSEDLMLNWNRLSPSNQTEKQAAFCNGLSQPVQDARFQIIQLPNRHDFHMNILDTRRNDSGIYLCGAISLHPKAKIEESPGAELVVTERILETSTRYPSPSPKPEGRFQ
The test can be described thus: PD-L1-Fc format, calibrated on PD-L1(wt)-Fc.

Test [3] addresses T1, human PD-1. The test can be described thus: PD-L2-Fc format, calibrated on PD-L2(wt)-Fc.
Test [4] concerns the target T2, mouse PD-1. The experiment in a line: PD-L2-Fc format, calibrated on PD-L2(wt)-Fc.
The target in test [5] is human IL-12 receptor complex (IL-12Rβ1, IL-12Rβ2) (human, UniProt P42701 24-662; Q99665 24-862). The test can be described thus: cell-based or functional assay.
Another test deals with T3, CD4 on CD4+ T cells (UniProt P01730 26-458, limits assumed).
T3 construct: whole, on cells
The experiment in a line: FACS. In general terms: A flow cytometer gives signals particle by particle.

T1 sequence (Q15116 25-167 limits assumed): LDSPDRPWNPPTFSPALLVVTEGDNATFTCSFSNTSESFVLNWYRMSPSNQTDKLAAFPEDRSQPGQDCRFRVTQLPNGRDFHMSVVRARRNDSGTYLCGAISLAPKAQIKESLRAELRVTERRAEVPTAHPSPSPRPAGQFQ
Sequence of human IL-12 receptor complex (IL-12Rβ1, IL-12Rβ2) (Q99665 24-862, chain 2 of 2, other chains not shown): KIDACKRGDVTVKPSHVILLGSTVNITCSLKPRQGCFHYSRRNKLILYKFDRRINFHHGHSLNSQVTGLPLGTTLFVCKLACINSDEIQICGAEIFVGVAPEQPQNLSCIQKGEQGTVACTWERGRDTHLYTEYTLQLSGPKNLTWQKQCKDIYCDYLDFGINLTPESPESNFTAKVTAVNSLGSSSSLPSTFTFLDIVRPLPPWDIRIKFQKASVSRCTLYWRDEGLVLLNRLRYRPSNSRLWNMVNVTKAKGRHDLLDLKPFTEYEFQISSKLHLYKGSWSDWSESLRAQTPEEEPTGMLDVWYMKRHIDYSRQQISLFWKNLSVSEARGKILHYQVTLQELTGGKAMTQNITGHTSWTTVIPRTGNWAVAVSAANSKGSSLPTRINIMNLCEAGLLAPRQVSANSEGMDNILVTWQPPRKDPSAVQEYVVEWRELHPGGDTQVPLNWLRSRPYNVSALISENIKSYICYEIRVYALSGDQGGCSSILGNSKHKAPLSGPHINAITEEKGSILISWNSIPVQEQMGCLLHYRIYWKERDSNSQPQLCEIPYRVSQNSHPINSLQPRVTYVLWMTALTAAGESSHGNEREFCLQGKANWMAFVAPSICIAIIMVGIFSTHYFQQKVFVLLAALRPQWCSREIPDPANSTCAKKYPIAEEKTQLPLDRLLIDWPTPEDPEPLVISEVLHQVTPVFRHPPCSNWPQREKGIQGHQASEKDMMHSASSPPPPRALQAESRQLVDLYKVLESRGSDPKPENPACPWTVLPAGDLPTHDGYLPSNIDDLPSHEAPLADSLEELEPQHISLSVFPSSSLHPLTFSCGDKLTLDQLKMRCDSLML

B1: PD-L1(mut7)-Fc (Fc fusion)
chain 1: FTVTVPKDLYVVEYGSNMTIECKFPVEKQLDLAALQVYWMMEDKNIIQFVHGEEDLKVQHSSYRQRARLLKDQLSLGNAALQITDVKLQDAGVYTCLIAYGGADYKRITVKVNAPYNKINQRILVVDPVTSEHELTCQAEGYPKAEVIWTSSDHQVLSGKTTTTNSKREEKLFNVTSTLRINTTTNEIFYCTFRRLDPEENHTAELVIPELPLAHPPNERGGGGSGGGDKTHTCPPCPAPEDEGGPSVFLFPPKPKDTLMISRTPEVTCVVVDVSHEDPEVKFNWYVDGVEVHNAKTKPREEQYNSTYRVVSVLTVLHQDWLNGKEYKCKVSNKALPAPIEKTISKAKGQPREPQVYVYPPSREEMTKNQVSLTCLVKGFYPSDIAVEWESNGQPENNYKTTPPVLDEDGSFALVSKLTVDKSRWQQGNVFSCSVMHEALHNHYTQKSLSLSPGK
chain 2: B1 chain 1 with D242K, E243K, Y359L, T374L, N398R, K400M, T402W, E408S, A413F, V415Y
notes: also called PD-L1(I54Q/E58M/R113T/M115L/S117A)
Consider B1, for which the Kd with human PD-1 [1] is 98 nM; with mouse PD-1 [2], 110 nM.

B2: PD-L2(mut2)-Fc (Fc fusion)
chain 1: LFTVTVPKELYIIEHGSNVTLECNFDTGSHVNLGAITAVLQKVENDTSPHRERATLLEEQLPLGKASFHIPQVQVRDEGQYQCIIIYGVAWDYKYLTLKVKASYRKINTHILKVPETDEVELTCQATGYPLAEVSWPNVSVPANTSHSRTPEGLYQVTSVLRLKPPPGRNFSCVFWNTHVRELTLASIDLQSQMEPRTHPTGGGGSGGGDKTHTCPPCPAPEDEGGPSVFLFPPKPKDTLMISRTPEVTCVVVDVSHEDPEVKFNWYVDGVEVHNAKTKPREEQYNSTYRVVSVLTVLHQDWLNGKEYKCKVSNKALPAPIEKTISKAKGQPREPQVYVYPPSREEMTKNQVSLTCLVKGFYPSDIAVEWESNGQPENNYKTTPPVLDEDGSFALVSKLTVDKSRWQQGNVFSCSVMHEALHNHYTQKSLSLSPGK
chain 2: B2 chain 1 with D223K, E224K, Y340L, T355L, N379R, K381M, T383W, E389S, A394F, V396Y
notes: also called PD-L2(S58V)
For B2, the dissociation constant (Kd) with human PD-1 [3] is 350 nM; in the test with mouse PD-1 [4] it was 230 nM.

B3: PD-L2(mut4)-Fc (Fc fusion)
chain 1: B2 chain 1 with T37V, Q41L
chain 2: LFTVTVPKELYIIEHGSNVTLECNFDTGSHVNLGAIVAVLLKVENDTSPHRERATLLEEQLPLGKASFHIPQVQVRDEGQYQCIIIYGVAWDYKYLTLKVKASYRKINTHILKVPETDEVELTCQATGYPLAEVSWPNVSVPANTSHSRTPEGLYQVTSVLRLKPPPGRNFSCVFWNTHVRELTLASIDLQSQMEPRTHPTGGGGSGGGDKTHTCPPCPAPEKKGGPSVFLFPPKPKDTLMISRTPEVTCVVVDVSHEDPEVKFNWYVDGVEVHNAKTKPREEQYNSTYRVVSVLTVLHQDWLNGKEYKCKVSNKALPAPIEKTISKAKGQPREPQVYVLPPSREEMTKNQVSLLCLVKGFYPSDIAVEWESNGQPENRYMTWPPVLDSDGSFFLYSKLTVDKSRWQQGNVFSCSVMHEALHNHYTQKSLSLSPGK
notes: also called PD-L2(T56V/S58V/Q60L)
In the case of B3, the values for the dissociation constant (Kd) with human PD-1 [3] and in the test with mouse PD-1 [4] were 255 nM and 220 nM, respectively.

B4: Fab-IL-12(F60A)-Fc-CD8 Ab (other)
light: DIQMTQTTSSLSASLGDRVTISCRASQDINNYLNWYQQKSDGTIKLLIYYTSRSYSGVPSRFSGSGSGTDYSLTISNRRQEDIATYFCQQGKTLPWTFGGGTKLEIKRTVAAPSVFIFPPSDEQLKSGTASVVCLLNNFYPREAKVQWKVDNALQSGNSQESVTEQDSKDSTYSLSSTLTLSKADYEKHKVYACEVTHQGLSSPVTKSFNRGEC
heavy 1: EVQLQQSGPELVKPGASVKMSCKASGYTFTDYYMKWVKQSHGKSLEWIGHINPNNDDTFYTQKFKGRATLTVDKSSSTAYMQLNSLTSEDSAVYYCVRDDYDGGWFAYWGQGTLVTVSSASTKGPSVFPLAPSSKSTSGGTAALGCLVKDYFPEPVTVSWNSGALTSGVHTFPAVLQSSGLYSLSSVVTVPSSSLGTQTYICNVNHKPSNTKVDKKVEPKSCDKTHTCPPCPAPEKKGGPSVFLFPPKPKDTLMISRTPEVTCVVVDVSHEDPEVKFNWYVDGVEVHNAKTKPREEQYNSTYRVVSVLTVLHQDWLNGKEYKCKVSNKALPAPIEKTISKAKGQPREPQVYVLPPSREEMTKNQVSLLCLVKGFYPSDIAVEWESNGQPENRYMTWPPVLDSDGSFFLYSKLTVDKSRWQQGNVFSCSVMHEALHNHYTQKSLSLSPGK
heavy 2: EVQLQQSGPELVKPGASVKMSCKASGYTFTDYYMKWVKQSHGKSLEWIGHINPNNDDTFYTQKFKGRATLTVDKSSSTAYMQLNSLTSEDSAVYYCVRDDYDGGWFAYWGQGTLVTVSSASTKGPSVFPLAPSSKSTSGGTAALGCLVKDYFPEPVTVSWNSGALTSGVHTFPAVLQSSGLYSLSSVVTVPSSSLGTQTYICNVNHKPSNTKVDKKVEPKSCDKPGSGIWELKKDVYVVELDWYPDAPGEMVVLTCDTPEEDGITWTLDQSSEVLGSGKTLTIQVKEAGDAGQYTCHKGGEVLSHSLLLLHKKEDGIWSTDILKDQKEPKNKTFLRCEAKNYSGRFTCWWLTTISTDLTFSVKSSRGSSDPQGVTCGAATLSAERVRGDNKEYEYSVECQEDSACPAAEESLPIEVMVDAVHKLKYENYTSSFFIRDIIKPDPPKNLQLKPLKNSRQVEVSWEYPDTWSTPHSYFSLTFCVQVQGKSKREKKDRVFTDKTSATVICRKNASISVRAQDRYYSSSWSEWASVPCSGGGGSGGGGSGGGGSGGGGSGRNLPVATPDPGMFPCLHHSQNLLRAVSNMLQKARQTLEFYPCTSEEIDHEDITKDKTSTVEACLPLELTKNESCLNSRETSFITNGSCLASRKTSFMMALCLSSIYEDLKMYQVEFKTMNAKLLMDPKRQIFLDQNMLAVIDELMQALNFNSETVPQKSSLEEPDFYKTKIKLCILLHAFRIRAVTIDRVMSYLNASDKTHTCPPCPAPEDEGGPSVFLFPPKPKDTLMISRTPEVTCVVVDVSHEDPEVKFNWYVDGVEVHNAKTKPREEQYNSTYRVVSVLTVLHQDWLNGKEYKCKVSNKALPAPIEKTISKAKGQPREPQVYVYPPSREEMTKNQVSLTCLVKGFYPSDIAVEWESNGQPENNYKTTPPVLDEDGSFALVSKLTVDKSRWQQGNVFSCSVMHEALHNHYTQKSLSLSPGK
notes: copies: 2 + 1 + 1
On to B4, for which, in test [5], the “IL-12 biological activity (IFN-γ release), CD4+ T cells” value came out at 1.2% and the “IL-12 biological activity (IFN-γ release), CD8+ T cells” value was found to be 21.9%. Also, the binding result in the test with CD4 on CD4+ T cells is “no binding”.
